Substitutions are numbered along the chain they refer to. Read-outs that look alike come from different tables or passages of the source.
B1: H4H16679P2 (antibody, V domains shown)
VH: QVQLVESGGGVVQPGRSLRLSCTASGFTFSSYAMYWVRQAPGKGLEWVSVIYYDGSYKYYADSVKGRFTISRDNSKNTLYLQMDSLRAEDTAVYYCASYNWNYWYFDFWGRGTLVTVSS
VL: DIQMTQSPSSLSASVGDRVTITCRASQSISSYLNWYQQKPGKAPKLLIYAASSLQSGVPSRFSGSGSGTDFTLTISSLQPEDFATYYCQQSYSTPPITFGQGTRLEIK
B2: H4H16650P2 (antibody, V domains shown)
VH: QVQLVESGGGVVQPGKSLRLSCVASGFTFSSDAMYWVRQAPGKGLEWVAVIYYDGNYQYYEDSVKGRFTISRDNSQNTLDLQMNSLRVDDTAVYFCARLNWDYWYLDLWGRGTLVTVSS
VL: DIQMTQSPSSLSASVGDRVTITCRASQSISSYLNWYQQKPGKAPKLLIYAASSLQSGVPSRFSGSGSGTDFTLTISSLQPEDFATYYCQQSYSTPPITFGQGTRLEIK

Experiments:
Assay in all cases: cell-based or functional assay
[1] = target: T1, wild-type LEPR on HEK293 reporter cells (UniProt P48357 22-1165, limits assumed)
T1 sequence (looked up): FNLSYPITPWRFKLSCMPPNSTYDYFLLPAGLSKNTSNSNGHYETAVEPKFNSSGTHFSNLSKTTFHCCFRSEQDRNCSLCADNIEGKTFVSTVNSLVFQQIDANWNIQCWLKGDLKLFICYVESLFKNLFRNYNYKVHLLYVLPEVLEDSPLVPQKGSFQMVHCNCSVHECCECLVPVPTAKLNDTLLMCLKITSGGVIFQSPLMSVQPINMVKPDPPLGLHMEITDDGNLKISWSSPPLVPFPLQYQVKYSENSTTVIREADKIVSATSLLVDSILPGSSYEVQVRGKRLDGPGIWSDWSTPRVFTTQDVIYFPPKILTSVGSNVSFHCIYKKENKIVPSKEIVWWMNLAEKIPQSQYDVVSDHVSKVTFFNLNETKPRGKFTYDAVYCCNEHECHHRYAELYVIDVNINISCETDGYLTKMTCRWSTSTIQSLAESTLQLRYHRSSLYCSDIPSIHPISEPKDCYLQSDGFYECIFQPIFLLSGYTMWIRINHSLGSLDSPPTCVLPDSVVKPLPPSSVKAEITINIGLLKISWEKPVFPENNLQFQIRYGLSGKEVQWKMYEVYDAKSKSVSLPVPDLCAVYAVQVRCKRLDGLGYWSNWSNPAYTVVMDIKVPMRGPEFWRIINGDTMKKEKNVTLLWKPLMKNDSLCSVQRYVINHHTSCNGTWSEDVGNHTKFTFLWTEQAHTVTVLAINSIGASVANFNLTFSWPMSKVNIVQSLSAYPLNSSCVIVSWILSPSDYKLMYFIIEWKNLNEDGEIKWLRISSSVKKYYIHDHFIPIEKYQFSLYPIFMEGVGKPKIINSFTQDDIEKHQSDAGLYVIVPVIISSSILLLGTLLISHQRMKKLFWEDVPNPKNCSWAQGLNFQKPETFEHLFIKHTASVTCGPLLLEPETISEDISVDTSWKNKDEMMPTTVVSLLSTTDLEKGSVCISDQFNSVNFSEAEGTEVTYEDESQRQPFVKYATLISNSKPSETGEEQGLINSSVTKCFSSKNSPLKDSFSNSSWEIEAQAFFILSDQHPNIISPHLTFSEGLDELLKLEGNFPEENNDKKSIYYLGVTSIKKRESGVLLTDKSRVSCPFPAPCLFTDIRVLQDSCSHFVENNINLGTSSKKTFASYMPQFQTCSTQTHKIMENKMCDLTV

[2] = target: T2, LEPR-A409E (signaling-defective mutant) on HEK293 reporter cells (human, UniProt P48357 22-1165)
T2 sequence: T1 sequence (looked up) with A388E

[3] = target: T1, wild-type LEPR on HEK293 reporter cells; remark: listed apart in the source

| Binder | EC50 (read off the curve), pSTAT3 Y705/STAT3 densitometry [1] [M] | EC50 (read off the curve), pSTAT3 Y705/STAT3 densitometry [2] [M] | EC50 (read off the curve), pSTAT3 Y705/STAT3 densitometry [3] [M] |
| --- | --- | --- | --- |
| B1 | ~3e-10 |  |  |
| B2 |  | ~2e-10 | ~5e-10 |

Source: patent US20190309079A1 (Regeneron, published 2019)
